Results: US20110118131A1 (published 2011)
Substitutions are numbered along the chain they refer to. Numbers in names are those of the source.

B1: XPA23 light chain N30S (Fab, V domains shown)
VH: EVQLLESGGGLVQPGGSLRLSCAASGFTFSKYFMFWVRQAPGKGLEWVSVISPSGGMTRYADSVKGRFTISRDNSKNTLYLQMNSLRAEDTAVYYCARVGYGGNSDYWGQGTLVTVSS
VL: DIQMTQSPSSVSASVGDRLTIICRASQDISRWLAWYQQTPGNAPKLLIHSATSLQSGVPSRFSGSGSGTDFTLTINSLQPEDFATYYCQQADSFPLTFGGGTKVEIK
B2: XPA23 light chain R31G (Fab, V domains shown)
VH: B1 VH
VL: B1 VL with S30N, R31G
B3: XPA23 light chain P95R (Fab, V domains shown)
VH: B1 VH
VL: B1 VL with S30N, P95R
B4: XPA23 light chain P95H (Fab, V domains shown)
VH: B1 VH
VL: B1 VL with S30N, P95H
B5: XPA23 light chain P95N (Fab, V domains shown)
VH: B1 VH
VL: B1 VL with S30N, P95N
B6: XPA23 light chain Q27G (Fab, V domains shown)
VH: B1 VH
VL: B1 VL with Q27G, S30N
B7: XPA23 light chain Q27V (Fab, V domains shown)
VH: B1 VH
VL: B1 VL with Q27V, S30N
B8: XPA23 light chain Q27R (Fab, V domains shown)
VH: B1 VH
VL: B1 VL with Q27R, S30N
B9: XPA23 light chain Q27P (Fab, V domains shown)
VH: B1 VH
VL: B1 VL with Q27P, S30N
B10: XPA23 light chain N30V (Fab, V domains shown)
VH: B1 VH
VL: B1 VL with S30V
B11: XPA23 light chain P95W (Fab, V domains shown)
VH: B1 VH
VL: B1 VL with S30N, P95W
B12: XPA23 light chain R31I (Fab, V domains shown)
VH: B1 VH
VL: B1 VL with S30N, R31I
B13: XPA23 light chain P95S (Fab, V domains shown)
VH: B1 VH
VL: B1 VL with S30N, P95S
B14: XPA23 light chain N30W (Fab, V domains shown)
VH: B1 VH
VL: B1 VL with S30W
B15: XPA23 light chain R31S (Fab, V domains shown)
VH: B1 VH
VL: B1 VL with S30N, R31S
B16: XPA23 light chain Q27N (Fab, V domains shown)
VH: B1 VH
VL: B1 VL with Q27N, S30N
B17: XPA23 light chain Q27A (Fab, V domains shown)
VH: B1 VH
VL: B1 VL with Q27A, S30N
B18: XPA23 light chain R31Q (Fab, V domains shown)
VH: B1 VH
VL: B1 VL with S30N, R31Q
B19: XPA23 light chain P95D (Fab, V domains shown)
VH: B1 VH
VL: B1 VL with S30N, P95D
B20: XPA23 light chain Q27L (Fab, V domains shown)
VH: B1 VH
VL: B1 VL with Q27L, S30N
B21: XPA23 light chain R31P (Fab, V domains shown)
VH: B1 VH
VL: B1 VL with S30N, R31P
B22: XPA23 light chain Q27H (Fab, V domains shown)
VH: B1 VH
VL: B1 VL with Q27H, S30N
B23: XPA23 light chain R31N (Fab, V domains shown)
VH: B1 VH
VL: B1 VL with S30N, R31N
B24: XPA23 light chain N30T (Fab, V domains shown)
VH: B1 VH
VL: B1 VL with S30T
B25: XPA23 light chain N30Y (Fab, V domains shown)
VH: B1 VH
VL: B1 VL with S30Y
B26: XPA23 light chain R31E (Fab, V domains shown)
VH: B1 VH
VL: B1 VL with S30N, R31E
B27: XPA23 light chain Q27F (Fab, V domains shown)
VH: B1 VH
VL: B1 VL with Q27F, S30N
B28: XPA23 light chain P95F (Fab, V domains shown)
VH: B1 VH
VL: B1 VL with S30N, P95F
B29: XPA23 light chain Q27D (Fab, V domains shown)
VH: B1 VH
VL: B1 VL with Q27D, S30N
B30: XPA23 light chain Q27E (Fab, V domains shown)
VH: B1 VH
VL: B1 VL with Q27E, S30N
B31: XPA23 light chain R31D (Fab, V domains shown)
VH: B1 VH
VL: B1 VL with S30N, R31D
B32: XPA23 light chain Q27S (Fab, V domains shown)
VH: B1 VH
VL: B1 VL with Q27S, S30N
B33: XPA23 light chain R31F (Fab, V domains shown)
VH: B1 VH
VL: B1 VL with S30N, R31F
B34: XPA23 light chain P95E (Fab, V domains shown)
VH: B1 VH
VL: B1 VL with S30N, P95E
B35: XPA23 light chain P95K (Fab, V domains shown)
VH: B1 VH
VL: B1 VL with S30N, P95K
B36: XPA23 light chain Q27I (Fab, V domains shown)
VH: B1 VH
VL: B1 VL with Q27I, S30N
B37: XPA23 light chain Q27T (Fab, V domains shown)
VH: B1 VH
VL: B1 VL with Q27T, S30N
B38: XPA23 light chain Q27K (Fab, V domains shown)
VH: B1 VH
VL: B1 VL with Q27K, S30N
B39: XPA23 light chain R31A (Fab, V domains shown)
VH: B1 VH
VL: B1 VL with S30N, R31A
B40: XPA23 light chain R31H (Fab, V domains shown)
VH: B1 VH
VL: B1 VL with S30N, R31H
B41: XPA23 light chain Q27W (Fab, V domains shown)
VH: B1 VH
VL: B1 VL with Q27W, S30N
B42: XPA23 light chain P95Y (Fab, V domains shown)
VH: B1 VH
VL: B1 VL with S30N, P95Y
B43: XPA23 light chain P95Q (Fab, V domains shown)
VH: B1 VH
VL: B1 VL with S30N, P95Q
B44: XPA23 light chain R31L (Fab, V domains shown)
VH: B1 VH
VL: B1 VL with S30N, R31L
B45: XPA23 light chain R31K (Fab, V domains shown)
VH: B1 VH
VL: B1 VL with S30N, R31K

Biological target: T1, IL-1β (UniProt P01584 117-269)
T1 construct: Antigen immobilised on the Biacore chip
Assay: Biacore, periplasmic extract

fold difference in affinity vs original [fold] | binding result | Binder
0.72 | – | B1
0.92 | – | B2
– | no binding | B3
– | no binding | B4
– | no binding | B5
– | no binding | B6
– | no binding | B7
0.89 | – | B8
– | no binding | B9
0.89 | – | B10
– | no binding | B11
0.68 | – | B12
4.05 | – | B13
1.06 | – | B14
0.44 | – | B15
– | no binding | B16
1.47 | – | B17
0.27 | – | B18
1.32 | – | B19
0.83 | – | B20
– | no binding | B21
1.09 | – | B22
0.38 | – | B23

fold difference in affinity vs original [fold] | binding result | Binder
0.97 | – | B24
1.4 | – | B25
– | no binding | B26
2.96 | – | B27
0.98 | – | B28
1.07 | – | B29
1.08 | – | B30
11.1 | – | B31
3.3 | – | B32
0.92 | – | B33
0.88 | – | B34
– | no binding | B35
0.82 | – | B36
0.64 | – | B37
– | no binding | B38
8.48 | – | B39
– | no binding | B40
– | no binding | B41
– | no binding | B42
– | no binding | B43
0.51 | – | B44
1.18 | – | B45
